From US20160263155A1, “T CELL RECEPTORS DIRECTED AGAINST THE PREFERENTIALLY EXPRESSED ANTIGEN OF MELANOMA AND USES THEREOF” (LEIDEN UNIVERSITY MEDICAL CENTER, priority 2015, published 2016)

System: chimeric Caspase-9 polypeptide
Experiment: Caspase mutant classes and basal activity (Table 3)
Type: cell-based, human
Conditions: class heading of Table 3; for IC50: ligand IC50

chimeric Caspase-9 polypeptide, sequence (as listed by the source, change not shown): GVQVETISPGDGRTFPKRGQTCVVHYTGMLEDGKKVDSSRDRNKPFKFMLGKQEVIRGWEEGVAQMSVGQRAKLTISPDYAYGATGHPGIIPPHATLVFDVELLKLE

Molecule	Basal Activity	IC50
C403A (protein) GFGDVGALESLRGNADLAYILSMEPCGHCLIINNVNFCRESGLRTRTGSNIDCEKLRRRFSSLHFMVEVKGDLTAKKMVLALLELAQQDHGALDCCVVVILSHGCQASHLQFPGAVYGTDGCPVSVEKIVNIFNGTSCPSLGGKPKLFFIQACGGEQKDHGFEVASTSPEDESPGSNPEPDATPFQEGLRTFDQLDAISSLPTPSDIFVSYSTFPGFVSWRDPKSGSWYVETLDDIFEQWAHSEDLQSLLLRVANAVSVKGIYKQMPGAFNFLRKKLFFKTS	Similar	Similar
F319A (protein) GFGDVGALESLRGNADLAYILSMEPCGHCLIINNVNFCRESGLRTRTGSNIDCEKLRRRFSSLHFMVEVKGDLTAKKMVLALLELAQQDHGALDCCVVVILSHGCQASHLQFPGAVYGTDGCPVSVEKIVNIFNGTSCPSLGGKPKLFFIQACGGEQKDHGFEVASTSPEDESPGSNPEPDATPAQEGLRTFDQLDAISSLPTPSDIFVSYSTFPGFVSWRDPKSGSWYVETLDDIFEQWAHSEDLQSLLLRVANAVSVKGIYKQMPGCFNFLRKKLFFKTS	Similar	Similar
L329K (protein) GFGDVGALESLRGNADLAYILSMEPCGHCLIINNVNFCRESGLRTRTGSNIDCEKLRRRFSSLHFMVEVKGDLTAKKMVLALLELAQQDHGALDCCVVVILSHGCQASHLQFPGAVYGTDGCPVSVEKIVNIFNGTSCPSLGGKPKLFFIQACGGEQKDHGFEVASTSPEDESPGSNPEPDATPFQEGLRTFDQKDAISSLPTPSDIFVSYSTFPGFVSWRDPKSGSWYVETLDDIFEQWAHSEDLQSLLLRVANAVSVKGIYKQMPGCFNFLRKKLFFKTS	Increased	
D327K (protein) GFGDVGALESLRGNADLAYILSMEPCGHCLIINNVNFCRESGLRTRTGSNIDCEKLRRRFSSLHFMVEVKGDLTAKKMVLALLELAQQDHGALDCCVVVILSHGCQASHLQFPGAVYGTDGCPVSVEKIVNIFNGTSCPSLGGKPKLFFIQACGGEQKDHGFEVASTSPEDESPGSNPEPDATPFQEGLRTFKQLDAISSLPTPSDIFVSYSTFPGFVSWRDPKSGSWYVETLDDIFEQWAHSEDLQSLLLRVANAVSVKGIYKQMPGCFNFLRKKLFFKTS	Increased	
N405T (protein) GFGDVGALESLRGNADLAYILSMEPCGHCLIINNVNFCRESGLRTRTGSNIDCEKLRRRFSSLHFMVEVKGDLTAKKMVLALLELAQQDHGALDCCVVVILSHGCQASHLQFPGAVYGTDGCPVSVEKIVNIFNGTSCPSLGGKPKLFFIQACGGEQKDHGFEVASTSPEDESPGSNPEPDATPFQEGLRTFDQLDAISSLPTPSDIFVSYSTFPGFVSWRDPKSGSWYVETLDDIFEQWAHSEDLQSLLLRVANAVSVKGIYKQMPGCFTFLRKKLFFKTS	Increased	
C403S (protein) GFGDVGALESLRGNADLAYILSMEPCGHCLIINNVNFCRESGLRTRTGSNIDCEKLRRRFSSLHFMVEVKGDLTAKKMVLALLELAQQDHGALDCCVVVILSHGCQASHLQFPGAVYGTDGCPVSVEKIVNIFNGTSCPSLGGKPKLFFIQACGGEQKDHGFEVASTSPEDESPGSNPEPDATPFQEGLRTFDQLDAISSLPTPSDIFVSYSTFPGFVSWRDPKSGSWYVETLDDIFEQWAHSEDLQSLLLRVANAVSVKGIYKQMPGSFNFLRKKLFFKTS	Similar	Similar
D330A-N405T (protein) GFGDVGALESLRGNADLAYILSMEPCGHCLIINNVNFCRESGLRTRTGSNIDCEKLRRRFSSLHFMVEVKGDLTAKKMVLALLELAQQDHGALDCCVVVILSHGCQASHLQFPGAVYGTDGCPVSVEKIVNIFNGTSCPSLGGKPKLFFIQACGGEQKDHGFEVASTSPEDESPGSNPEPDATPFQEGLRTFDQLAAISSLPTPSDIFVSYSTFPGFVSWRDPKSGSWYVETLDDIFEQWAHSEDLQSLLLRVANAVSVKGIYKQMPGCFTFLRKKLFFKTS	Increased	
F326K (protein) GFGDVGALESLRGNADLAYILSMEPCGHCLIINNVNFCRESGLRTRTGSNIDCEKLRRRFSSLHFMVEVKGDLTAKKMVLALLELAQQDHGALDCCVVVILSHGCQASHLQFPGAVYGTDGCPVSVEKIVNIFNGTSCPSLGGKPKLFFIQACGGEQKDHGFEVASTSPEDESPGSNPEPDATPFQEGLRTKDQLDAISSLPTPSDIFVSYSTFPGFVSWRDPKSGSWYVETLDDIFEQWAHSEDLQSLLLRVANAVSVKGIYKQMPGCFNFLRKKLFFKTS	Increased	
T317C (protein) GFGDVGALESLRGNADLAYILSMEPCGHCLIINNVNFCRESGLRTRTGSNIDCEKLRRRFSSLHFMVEVKGDLTAKKMVLALLELAQQDHGALDCCVVVILSHGCQASHLQFPGAVYGTDGCPVSVEKIVNIFNGTSCPSLGGKPKLFFIQACGGEQKDHGFEVASTSPEDESPGSNPEPDACPFQEGLRTFDQLDAISSLPTPSDIFVSYSTFPGFVSWRDPKSGSWYVETLDDIFEQWAHSEDLQSLLLRVANAVSVKGIYKQMPGCFNFLRKKLFFKTS	Similar	Similar
D327R (protein) GFGDVGALESLRGNADLAYILSMEPCGHCLIINNVNFCRESGLRTRTGSNIDCEKLRRRFSSLHFMVEVKGDLTAKKMVLALLELAQQDHGALDCCVVVILSHGCQASHLQFPGAVYGTDGCPVSVEKIVNIFNGTSCPSLGGKPKLFFIQACGGEQKDHGFEVASTSPEDESPGSNPEPDATPFQEGLRTFRQLDAISSLPTPSDIFVSYSTFPGFVSWRDPKSGSWYVETLDDIFEQWAHSEDLQSLLLRVANAVSVKGIYKQMPGCFNFLRKKLFFKTS	Increased	
N405A (protein) GFGDVGALESLRGNADLAYILSMEPCGHCLIINNVNFCRESGLRTRTGSNIDCEKLRRRFSSLHFMVEVKGDLTAKKMVLALLELAQQDHGALDCCVVVILSHGCQASHLQFPGAVYGTDGCPVSVEKIVNIFNGTSCPSLGGKPKLFFIQACGGEQKDHGFEVASTSPEDESPGSNPEPDATPFQEGLRTFDQLDAISSLPTPSDIFVSYSTFPGFVSWRDPKSGSWYVETLDDIFEQWAHSEDLQSLLLRVANAVSVKGIYKQMPGCFAFLRKKLFFKTS	Similar	Similar
D327G (protein) GFGDVGALESLRGNADLAYILSMEPCGHCLIINNVNFCRESGLRTRTGSNIDCEKLRRRFSSLHFMVEVKGDLTAKKMVLALLELAQQDHGALDCCVVVILSHGCQASHLQFPGAVYGTDGCPVSVEKIVNIFNGTSCPSLGGKPKLFFIQACGGEQKDHGFEVASTSPEDESPGSNPEPDATPFQEGLRTFGQLDAISSLPTPSDIFVSYSTFPGFVSWRDPKSGSWYVETLDDIFEQWAHSEDLQSLLLRVANAVSVKGIYKQMPGCFNFLRKKLFFKTS	Increased	
P318A (protein) GFGDVGALESLRGNADLAYILSMEPCGHCLIINNVNFCRESGLRTRTGSNIDCEKLRRRFSSLHFMVEVKGDLTAKKMVLALLELAQQDHGALDCCVVVILSHGCQASHLQFPGAVYGTDGCPVSVEKIVNIFNGTSCPSLGGKPKLFFIQACGGEQKDHGFEVASTSPEDESPGSNPEPDATAFQEGLRTFDQLDAISSLPTPSDIFVSYSTFPGFVSWRDPKSGSWYVETLDDIFEQWAHSEDLQSLLLRVANAVSVKGIYKQMPGCFNFLRKKLFFKTS	Similar	Similar
A331K (protein) GFGDVGALESLRGNADLAYILSMEPCGHCLIINNVNFCRESGLRTRTGSNIDCEKLRRRFSSLHFMVEVKGDLTAKKMVLALLELAQQDHGALDCCVVVILSHGCQASHLQFPGAVYGTDGCPVSVEKIVNIFNGTSCPSLGGKPKLFFIQACGGEQKDHGFEVASTSPEDESPGSNPEPDATPFQEGLRTFDQLDKISSLPTPSDIFVSYSTFPGFVSWRDPKSGSWYVETLDDIFEQWAHSEDLQSLLLRVANAVSVKGIYKQMPGCFNFLRKKLFFKTS	Increased	
C403T (protein) GFGDVGALESLRGNADLAYILSMEPCGHCLIINNVNFCRESGLRTRTGSNIDCEKLRRRFSSLHFMVEVKGDLTAKKMVLALLELAQQDHGALDCCVVVILSHGCQASHLQFPGAVYGTDGCPVSVEKIVNIFNGTSCPSLGGKPKLFFIQACGGEQKDHGFEVASTSPEDESPGSNPEPDATPFQEGLRTFDQLDAISSLPTPSDIFVSYSTFPGFVSWRDPKSGSWYVETLDDIFEQWAHSEDLQSLLLRVANAVSVKGIYKQMPGTFNFLRKKLFFKTS	Similar	Similar
T317E (protein) GFGDVGALESLRGNADLAYILSMEPCGHCLIINNVNFCRESGLRTRTGSNIDCEKLRRRFSSLHFMVEVKGDLTAKKMVLALLELAQQDHGALDCCVVVILSHGCQASHLQFPGAVYGTDGCPVSVEKIVNIFNGTSCPSLGGKPKLFFIQACGGEQKDHGFEVASTSPEDESPGSNPEPDAEPFQEGLRTFDQLDAISSLPTPSDIFVSYSTFPGFVSWRDPKSGSWYVETLDDIFEQWAHSEDLQSLLLRVANAVSVKGIYKQMPGCFNFLRKKLFFKTS	Increased	
^316ATPF^319AVPI: Caspase-9 mutant (SEQ ID NOS 97 and 98) (SMAC/Diablo) (protein, UniProt P55211 1-416, looked up, variant T317V F319I) MDEADRRLLRRCRLRLVEELQVDQLWDALLSRELFRPHMIEDIQRAGSGSRRDQARQLIIDLETRGSQALPLFISCLEDTGQDMLASFLRTNRQAAKLSKPTLENLTPVVLRPEIRKPEVLRPETPRPVDIGSGGFGDVGALESLRGNADLAYILSMEPCGHCLIINNVNFCRESGLRTRTGSNIDCEKLRRRFSSLHFMVEVKGDLTAKKMVLALLELAQQDHGALDCCVVVILSHGCQASHLQFPGAVYGTDGCPVSVEKIVNIFNGTSCPSLGGKPKLFFIQACGGEQKDHGFEVASTSPEDESPGSNPEPDAVPIQEGLRTFDQLDAISSLPTPSDIFVSYSTFPGFVSWRDPKSGSWYVETLDDIFEQWAHSEDLQSLLLRVANAVSVKGIYKQMPGCFNFLRKKLFFKTS	Similar	Similar
